In publication PMC3464605, “Thermodynamic analysis of DNA binding by a Bacillus single stranded DNA binding protein”:
Where “and” joins values, the source holds several entries; their conditions need not be identical. Equal values may be shown once.

Columns and labels:
SSB_BA [1] = target: T1, SSB_BA (Bacillus anthracis, UniProt Q81JI3 1-172); assay: FRET titration; […]) or 1 nM ([…]; FRET at 25 C; pH not given; settings: protein: recombinant; tags: none stated (pET29b); label: 5'-Cy5; 3'-Cy3
T1 sequence: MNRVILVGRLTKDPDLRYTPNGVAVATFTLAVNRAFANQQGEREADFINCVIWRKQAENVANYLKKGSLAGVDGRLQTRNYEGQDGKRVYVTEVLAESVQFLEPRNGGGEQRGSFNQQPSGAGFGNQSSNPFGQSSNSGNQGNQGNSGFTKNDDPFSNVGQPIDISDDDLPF

SSB_EC = SSB_EC (Escherichia coli, UniProt P0AGE0 2-178); assay: FRET titration; 25 C, 40 nM DNA (200 nM in Results text); high FRET peak at 0.44 uM, (SSB)35 mode at >=1.1 uM; Anisotropy: buffer B (composition not in material), 25 mM KCl, 5 mM Mg2+, 25 C, 0.1 nM (Results) or 1 nM (Methods) Fl-(dT)20; temperature series 20-37 C with 25 mM NaCl and glycerol; salt series 0-200/250 mM NaCl at 25 C; FRET at 25 C; pH not given; settings: chain copies: 4; label: 5'-Cy5; 3'-Cy3
SSB_BA [2] = target: T1, SSB_BA; assay: fluorescence anisotropy; […]) or 1 nM ([…]; FRET at 25 C; pH not given; settings: protein: recombinant; tags: none stated (pET29b); label: 5'-fluorescein

Sequence of SSB_EC (P0AGE0 2-178): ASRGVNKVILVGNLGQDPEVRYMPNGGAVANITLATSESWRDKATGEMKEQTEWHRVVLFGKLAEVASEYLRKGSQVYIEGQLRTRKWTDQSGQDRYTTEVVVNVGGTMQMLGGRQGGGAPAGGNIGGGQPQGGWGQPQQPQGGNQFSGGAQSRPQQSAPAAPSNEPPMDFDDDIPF

B1: Cy5-(dT)70-Cy3 (ssDNA)
DNA: TTTTTTTTTTTTTTTTTTTTTTTTTTTTTTTTTTTTTTTTTTTTTTTTTTTTTTTTTTTTTTTTTTTTTT
**Q.** Does B1 bind (SSB_BA [1])?
**A.** Result: binds

**Q.** Does B1 bind (SSB_EC)?
**A.** Result: binds

**Q.** Which Kd (SSB_BA [2]) does the source give for TTTTTTTTTTTTTTTTTTTT (ssDNA) [Fl-(dT)20] here?
**A.** The Kd was 1 nM and 1.2 nM.
